Data set [1] addresses T1, 6HisPrpR (PrpRMt) (Mycobacterium tuberculosis H37Rv) (UniProt O06581).
T1 sequence: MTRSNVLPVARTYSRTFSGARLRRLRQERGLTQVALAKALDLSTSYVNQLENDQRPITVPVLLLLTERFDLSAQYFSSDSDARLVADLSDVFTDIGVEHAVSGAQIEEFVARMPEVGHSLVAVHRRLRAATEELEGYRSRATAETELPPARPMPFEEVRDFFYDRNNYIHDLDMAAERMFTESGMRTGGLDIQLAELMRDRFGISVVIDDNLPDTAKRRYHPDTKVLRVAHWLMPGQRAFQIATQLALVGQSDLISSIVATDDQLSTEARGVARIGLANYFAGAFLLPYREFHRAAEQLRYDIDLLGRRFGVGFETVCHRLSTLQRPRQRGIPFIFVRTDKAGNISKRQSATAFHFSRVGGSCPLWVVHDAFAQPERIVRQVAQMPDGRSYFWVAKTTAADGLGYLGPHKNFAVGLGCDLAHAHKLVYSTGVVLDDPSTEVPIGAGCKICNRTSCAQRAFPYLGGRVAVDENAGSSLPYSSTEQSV
Description: EMSA. The conditions noted are these: 50 mM Tris-HCl pH 7.5, 50 mM KCl, 10 mM MgCl2, 10% glycerol, 0.5 mM EDTA; […], SA chip). For orientation: Mobility shift assays separate free from complexed probe on a gel.

The target of data set [2] is T1, 6HisPrpR (PrpRMt) (Mycobacterium tuberculosis H37Rv). Briefly: SPR. As to conditions: 50 mM Tris-HCl pH 7.5, 50 mM KCl, 10 mM MgCl2, 10% glycerol, 0.5 mM EDTA; […], SA chip).
For data set [3], the target named is T2, 6HisRamB (UniProt P9WMI1).
T2 sequence: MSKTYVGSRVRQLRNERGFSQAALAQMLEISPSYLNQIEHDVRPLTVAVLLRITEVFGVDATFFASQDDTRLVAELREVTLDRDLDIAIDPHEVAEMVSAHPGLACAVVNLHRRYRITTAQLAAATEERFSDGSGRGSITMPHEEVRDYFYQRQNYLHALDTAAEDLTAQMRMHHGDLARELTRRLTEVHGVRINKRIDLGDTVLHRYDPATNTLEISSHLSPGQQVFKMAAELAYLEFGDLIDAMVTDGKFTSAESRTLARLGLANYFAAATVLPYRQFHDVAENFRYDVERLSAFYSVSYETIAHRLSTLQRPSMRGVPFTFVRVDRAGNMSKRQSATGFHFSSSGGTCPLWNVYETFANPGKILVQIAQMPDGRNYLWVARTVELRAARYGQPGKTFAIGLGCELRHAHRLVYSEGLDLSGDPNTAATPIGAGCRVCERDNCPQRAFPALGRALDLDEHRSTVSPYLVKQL
Briefly: SPR. The conditions noted are these: 50 mM Tris-HCl pH 7.5, 50 mM KCl, 10 mM MgCl2, 10% glycerol, 0.5 mM EDTA; […], SA chip).

The subject of data set [4] is 6HisPrpR (PrpRMt) (Mycobacterium tuberculosis H37Rv). Description: SPR. The conditions noted are these: 50 mM Tris-HCl pH 7.5, 50 mM KCl, 10 mM MgCl2, 10% glycerol, 0.5 mM EDTA; 25 C, 30 min (EMSA, footprinting); same buffer for SPR (BIAcore T3000, SA chip).
Data set [5] concerns 6HisRamB. Description: SPR. As to conditions: 50 mM Tris-HCl pH 7.5, 50 mM KCl, 10 mM MgCl2, 10% glycerol, 0.5 mM EDTA; […], SA chip).

The term Kd denotes the concentration at which binding is half-saturated. A high value points to lower affinity. As to “GGCGGTCGAACACGTCGGGGTGACCGTCGGGCACGGGCATCAATTTTTTGTCGAGGCTCACGGCGTTCTCCCCATTTCCTCCTCGCGTGTACCTCAGGCTCACCCTTGAGTCCCGGTGCGAATCATGCCAACGCCGTGGCGGAAACACCAATCGCAGCACGCTTGCTAACTCTGCGAATGGCGTCTTCACAACACCCGGTACGCTCGGTTGGGTGTCCAAGACCTACGTCGGCTCGCGGGTCCGCCAACTGCCC (double strand) [pramB]”, the binding result in data set [1] is listed as “binds”. For the same substance, the dissociation constant Kd in data set [2] came out at 32 nM; in the data set with 6HisRamB [3], 328 nM.

As to “GGGTGCCTCCGATCCGAGCTCGGACTCGGCAAGTACCGCCACTTTCATGACCGCGCGAGGTGGTGCGTCGGGAGCGCTACTGGTGTTCGTGTTCGCTGACGACATGTAGCGGGCAGCTCCTCTTCCGGGCGGTTCGTTTGCAAACGATACGCATGCTGTGTGTAGATTTCCCACCTCCCGACAGCCGAGACGACGACATGTGCTGGAGTTATTGCCTTCGACTTGACGGTTGATCGTTAGCACC (double strand) [pkstR]”, the binding result in data set [1] is listed as “binds”. For the same substance, the Kd in data set [2] amounted to 25 nM.

Turning to “GGTGCTCCGCGCTCTTCGGGGTGCCGACGACAGACATAGACAACTCCTTAACGGTCTTTCATTGCCGAAAACGCTGACGCCCTACCGTCGTCCAGGCGGTGTCAACGGCGCAGCTTCACTGGTGTGCTAACTCGACCATGGCACAGCGTGTCAACGCTGGTCCACCCATTTCACTTGCGAATTTCGGCAACGGCCTGCGGACTTTTTGCAAATTTTGCGAAGTCGCCCAAAAACTGAACCGTTTCAGAAGCTACCCGCCAGTAACGACAAATCCGCAGGTAAACCCCC (double strand) [picl1]”, the binding result in data set [1] is “binds”.

As to pkstR, the Kd in data set [4] was 25 nM. This lies in the double-digit nanomolar range.

As for pramB, the values for the Kd (in the data set on 6HisRamB [5]; in data set [4]) were 328 nM and 32 nM, respectively.

The values are drawn from PMC3420887.
